Measurements taken from paper PMC4963854 (2016).

Columns and labels:
Fluo-Ia = Fluo-Ia (Streptococcus pyogenes); test: fluorescence polarization
Fluo-IIa = Fluo-IIa (Streptococcus pyogenes); test: fluorescence polarization

B1: Epsilon antitoxin (protein)
chain: AVTYEKTFEIEIINELSASVYNRVLNYVLNHELNKNDSQLLEVNLLNQLKLAKRVNLFDYSLEELQAVHEYWRSMNRYSKQVLNKEKVA
For B1, the Kd (Fluo-Ia) was 74.5 nM and the Kd (Fluo-IIa) was 170 nM.
